# Source: publication PMC10632352, “Nde1 promotes Lis1-mediated activation of dynein” (Nature Communications, 2023)
# T1: Lis1^39–410 (human, UniProt P43034 39-410)
# T1 sequence (looked up): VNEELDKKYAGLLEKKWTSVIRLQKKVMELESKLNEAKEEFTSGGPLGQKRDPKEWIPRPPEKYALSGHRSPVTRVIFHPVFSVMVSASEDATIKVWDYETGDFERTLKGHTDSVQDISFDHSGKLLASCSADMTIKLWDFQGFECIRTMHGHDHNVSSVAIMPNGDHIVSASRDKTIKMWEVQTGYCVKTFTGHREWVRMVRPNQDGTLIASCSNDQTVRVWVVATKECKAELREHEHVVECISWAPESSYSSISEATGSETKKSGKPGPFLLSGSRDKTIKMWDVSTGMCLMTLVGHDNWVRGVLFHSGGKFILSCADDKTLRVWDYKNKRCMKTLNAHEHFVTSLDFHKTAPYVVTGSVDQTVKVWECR
# B1: human Lis1 (natural protein, UniProt P43034 1-410, looked up)
# chain: MVLSQRQRDELNRAIADYLRSNGYEEAYSVFKKEAELDVNEELDKKYAGLLEKKWTSVIRLQKKVMELESKLNEAKEEFTSGGPLGQKRDPKEWIPRPPEKYALSGHRSPVTRVIFHPVFSVMVSASEDATIKVWDYETGDFERTLKGHTDSVQDISFDHSGKLLASCSADMTIKLWDFQGFECIRTMHGHDHNVSSVAIMPNGDHIVSASRDKTIKMWEVQTGYCVKTFTGHREWVRMVRPNQDGTLIASCSNDQTVRVWVVATKECKAELREHEHVVECISWAPESSYSSISEATGSETKKSGKPGPFLLSGSRDKTIKMWDVSTGMCLMTLVGHDNWVRGVLFHSGGKFILSCADDKTLRVWDYKNKRCMKTLNAHEHFVTSLDFHKTAPYVVTGSVDQTVKVWECR
# modifications: benzylguanine dyes on the SNAP tag, by experiment: LD555, LD655, or Alexa488 and biotin
# notes: Lis1 (noncatalytic beta subunit of PAF-AH1B), human; Homodimer by mass photometry; also called full-length Lis1; SNAP-Lis1; source: Sf9 (baculovirus, pOmniBac), purified (IgG Sepharose, TEV elution, Superdex 200 Increase SEC)
# Assays:
# [1] = molecular target: wild-type human dynein (cytoplasmic dynein-1 complex) (human) (UniProt Q14204); test: single-molecule colocalization (TIRF); dynein (Alexa488 and biotin on its SNAP tag, 0.2 nM) immobilised on streptavidin / biotin-PEG glass; labelled prey in MB buffer (30 mM HEPES pH 7.0, 5 mM MgSO4, 1 mM EGTA, casein, pluronic, DTT, Taxol), 10 min, unbound prey not washed away; third proteins added
# [2] = molecular target: dynein mutant unable to attain the phi conformation (mtDyn) (human) (UniProt Q14204); test: as above
# WT dynein-GFP (human) = WT dynein-GFP (human) (UniProt Q14204); test: real-time TIRF of the initiation of DDR motility; microtubules decorated with WT dynein-GFP and Nde1-LD655 in the absence of Lis1; dynactin and BicDR1 (one of them LD555-labelled) flown in during imaging
# [3] = molecular target: the molecule itself; test: mass photometry; proteins diluted to 5–20 nM in 30 mM HEPES pH 7.4, 5 mM MgSO4, 1 mM EGTA, 10% glycerol; Refeyn TwoMP; profiles fitted to multiple Gaussians
# [4] = molecular target: dynein mutant unable to attain the phi conformation (mtDyn) (human), Q14204
# [5] = molecular target: dynein mutant unable to attain the phi conformation (mtDyn) (human) (UniProt Q14204)
# human Lis1 = molecular target: B1; test: cell-based or functional assay
# Lis1^39–410 = molecular target: T1, Lis1^39–410; test: cell-based or functional assay
# [6] = molecular target: wild-type human dynein (cytoplasmic dynein-1 complex) (human) (UniProt Q14204); test: single-molecule colocalization (TIRF); dynein (Alexa488 and biotin on its SNAP tag, 0.2 nM) immobilised on streptavidin / biotin-PEG glass; labelled prey in MB buffer (30 mM HEPES pH 7.0, 5 mM MgSO4, 1 mM EGTA, casein, pluronic, DTT, Taxol), 10 min, unbound prey not washed away; third proteins added; remark: listed apart in the source
# [7] = molecular target: dynein-dynactin-BicDR1 complex assembled with wild-type human dynein (wtDDR) (human | pig | mouse) (UniProt Q14204); test: three-color TIRF comigration on microtubules; 100 nM BicDR1-mNG, 10 nM LD555-Lis1 and 10 nM LD655-Nde1 preincubated with the DDR components; processive runs on surface-immobilised microtubules
# Sequence of dynein-dynactin-BicDR1 complex assembled with wild-type human dynein (wtDDR) (human | pig | mouse) (Q14204 whole entry, looked up, one chain of several): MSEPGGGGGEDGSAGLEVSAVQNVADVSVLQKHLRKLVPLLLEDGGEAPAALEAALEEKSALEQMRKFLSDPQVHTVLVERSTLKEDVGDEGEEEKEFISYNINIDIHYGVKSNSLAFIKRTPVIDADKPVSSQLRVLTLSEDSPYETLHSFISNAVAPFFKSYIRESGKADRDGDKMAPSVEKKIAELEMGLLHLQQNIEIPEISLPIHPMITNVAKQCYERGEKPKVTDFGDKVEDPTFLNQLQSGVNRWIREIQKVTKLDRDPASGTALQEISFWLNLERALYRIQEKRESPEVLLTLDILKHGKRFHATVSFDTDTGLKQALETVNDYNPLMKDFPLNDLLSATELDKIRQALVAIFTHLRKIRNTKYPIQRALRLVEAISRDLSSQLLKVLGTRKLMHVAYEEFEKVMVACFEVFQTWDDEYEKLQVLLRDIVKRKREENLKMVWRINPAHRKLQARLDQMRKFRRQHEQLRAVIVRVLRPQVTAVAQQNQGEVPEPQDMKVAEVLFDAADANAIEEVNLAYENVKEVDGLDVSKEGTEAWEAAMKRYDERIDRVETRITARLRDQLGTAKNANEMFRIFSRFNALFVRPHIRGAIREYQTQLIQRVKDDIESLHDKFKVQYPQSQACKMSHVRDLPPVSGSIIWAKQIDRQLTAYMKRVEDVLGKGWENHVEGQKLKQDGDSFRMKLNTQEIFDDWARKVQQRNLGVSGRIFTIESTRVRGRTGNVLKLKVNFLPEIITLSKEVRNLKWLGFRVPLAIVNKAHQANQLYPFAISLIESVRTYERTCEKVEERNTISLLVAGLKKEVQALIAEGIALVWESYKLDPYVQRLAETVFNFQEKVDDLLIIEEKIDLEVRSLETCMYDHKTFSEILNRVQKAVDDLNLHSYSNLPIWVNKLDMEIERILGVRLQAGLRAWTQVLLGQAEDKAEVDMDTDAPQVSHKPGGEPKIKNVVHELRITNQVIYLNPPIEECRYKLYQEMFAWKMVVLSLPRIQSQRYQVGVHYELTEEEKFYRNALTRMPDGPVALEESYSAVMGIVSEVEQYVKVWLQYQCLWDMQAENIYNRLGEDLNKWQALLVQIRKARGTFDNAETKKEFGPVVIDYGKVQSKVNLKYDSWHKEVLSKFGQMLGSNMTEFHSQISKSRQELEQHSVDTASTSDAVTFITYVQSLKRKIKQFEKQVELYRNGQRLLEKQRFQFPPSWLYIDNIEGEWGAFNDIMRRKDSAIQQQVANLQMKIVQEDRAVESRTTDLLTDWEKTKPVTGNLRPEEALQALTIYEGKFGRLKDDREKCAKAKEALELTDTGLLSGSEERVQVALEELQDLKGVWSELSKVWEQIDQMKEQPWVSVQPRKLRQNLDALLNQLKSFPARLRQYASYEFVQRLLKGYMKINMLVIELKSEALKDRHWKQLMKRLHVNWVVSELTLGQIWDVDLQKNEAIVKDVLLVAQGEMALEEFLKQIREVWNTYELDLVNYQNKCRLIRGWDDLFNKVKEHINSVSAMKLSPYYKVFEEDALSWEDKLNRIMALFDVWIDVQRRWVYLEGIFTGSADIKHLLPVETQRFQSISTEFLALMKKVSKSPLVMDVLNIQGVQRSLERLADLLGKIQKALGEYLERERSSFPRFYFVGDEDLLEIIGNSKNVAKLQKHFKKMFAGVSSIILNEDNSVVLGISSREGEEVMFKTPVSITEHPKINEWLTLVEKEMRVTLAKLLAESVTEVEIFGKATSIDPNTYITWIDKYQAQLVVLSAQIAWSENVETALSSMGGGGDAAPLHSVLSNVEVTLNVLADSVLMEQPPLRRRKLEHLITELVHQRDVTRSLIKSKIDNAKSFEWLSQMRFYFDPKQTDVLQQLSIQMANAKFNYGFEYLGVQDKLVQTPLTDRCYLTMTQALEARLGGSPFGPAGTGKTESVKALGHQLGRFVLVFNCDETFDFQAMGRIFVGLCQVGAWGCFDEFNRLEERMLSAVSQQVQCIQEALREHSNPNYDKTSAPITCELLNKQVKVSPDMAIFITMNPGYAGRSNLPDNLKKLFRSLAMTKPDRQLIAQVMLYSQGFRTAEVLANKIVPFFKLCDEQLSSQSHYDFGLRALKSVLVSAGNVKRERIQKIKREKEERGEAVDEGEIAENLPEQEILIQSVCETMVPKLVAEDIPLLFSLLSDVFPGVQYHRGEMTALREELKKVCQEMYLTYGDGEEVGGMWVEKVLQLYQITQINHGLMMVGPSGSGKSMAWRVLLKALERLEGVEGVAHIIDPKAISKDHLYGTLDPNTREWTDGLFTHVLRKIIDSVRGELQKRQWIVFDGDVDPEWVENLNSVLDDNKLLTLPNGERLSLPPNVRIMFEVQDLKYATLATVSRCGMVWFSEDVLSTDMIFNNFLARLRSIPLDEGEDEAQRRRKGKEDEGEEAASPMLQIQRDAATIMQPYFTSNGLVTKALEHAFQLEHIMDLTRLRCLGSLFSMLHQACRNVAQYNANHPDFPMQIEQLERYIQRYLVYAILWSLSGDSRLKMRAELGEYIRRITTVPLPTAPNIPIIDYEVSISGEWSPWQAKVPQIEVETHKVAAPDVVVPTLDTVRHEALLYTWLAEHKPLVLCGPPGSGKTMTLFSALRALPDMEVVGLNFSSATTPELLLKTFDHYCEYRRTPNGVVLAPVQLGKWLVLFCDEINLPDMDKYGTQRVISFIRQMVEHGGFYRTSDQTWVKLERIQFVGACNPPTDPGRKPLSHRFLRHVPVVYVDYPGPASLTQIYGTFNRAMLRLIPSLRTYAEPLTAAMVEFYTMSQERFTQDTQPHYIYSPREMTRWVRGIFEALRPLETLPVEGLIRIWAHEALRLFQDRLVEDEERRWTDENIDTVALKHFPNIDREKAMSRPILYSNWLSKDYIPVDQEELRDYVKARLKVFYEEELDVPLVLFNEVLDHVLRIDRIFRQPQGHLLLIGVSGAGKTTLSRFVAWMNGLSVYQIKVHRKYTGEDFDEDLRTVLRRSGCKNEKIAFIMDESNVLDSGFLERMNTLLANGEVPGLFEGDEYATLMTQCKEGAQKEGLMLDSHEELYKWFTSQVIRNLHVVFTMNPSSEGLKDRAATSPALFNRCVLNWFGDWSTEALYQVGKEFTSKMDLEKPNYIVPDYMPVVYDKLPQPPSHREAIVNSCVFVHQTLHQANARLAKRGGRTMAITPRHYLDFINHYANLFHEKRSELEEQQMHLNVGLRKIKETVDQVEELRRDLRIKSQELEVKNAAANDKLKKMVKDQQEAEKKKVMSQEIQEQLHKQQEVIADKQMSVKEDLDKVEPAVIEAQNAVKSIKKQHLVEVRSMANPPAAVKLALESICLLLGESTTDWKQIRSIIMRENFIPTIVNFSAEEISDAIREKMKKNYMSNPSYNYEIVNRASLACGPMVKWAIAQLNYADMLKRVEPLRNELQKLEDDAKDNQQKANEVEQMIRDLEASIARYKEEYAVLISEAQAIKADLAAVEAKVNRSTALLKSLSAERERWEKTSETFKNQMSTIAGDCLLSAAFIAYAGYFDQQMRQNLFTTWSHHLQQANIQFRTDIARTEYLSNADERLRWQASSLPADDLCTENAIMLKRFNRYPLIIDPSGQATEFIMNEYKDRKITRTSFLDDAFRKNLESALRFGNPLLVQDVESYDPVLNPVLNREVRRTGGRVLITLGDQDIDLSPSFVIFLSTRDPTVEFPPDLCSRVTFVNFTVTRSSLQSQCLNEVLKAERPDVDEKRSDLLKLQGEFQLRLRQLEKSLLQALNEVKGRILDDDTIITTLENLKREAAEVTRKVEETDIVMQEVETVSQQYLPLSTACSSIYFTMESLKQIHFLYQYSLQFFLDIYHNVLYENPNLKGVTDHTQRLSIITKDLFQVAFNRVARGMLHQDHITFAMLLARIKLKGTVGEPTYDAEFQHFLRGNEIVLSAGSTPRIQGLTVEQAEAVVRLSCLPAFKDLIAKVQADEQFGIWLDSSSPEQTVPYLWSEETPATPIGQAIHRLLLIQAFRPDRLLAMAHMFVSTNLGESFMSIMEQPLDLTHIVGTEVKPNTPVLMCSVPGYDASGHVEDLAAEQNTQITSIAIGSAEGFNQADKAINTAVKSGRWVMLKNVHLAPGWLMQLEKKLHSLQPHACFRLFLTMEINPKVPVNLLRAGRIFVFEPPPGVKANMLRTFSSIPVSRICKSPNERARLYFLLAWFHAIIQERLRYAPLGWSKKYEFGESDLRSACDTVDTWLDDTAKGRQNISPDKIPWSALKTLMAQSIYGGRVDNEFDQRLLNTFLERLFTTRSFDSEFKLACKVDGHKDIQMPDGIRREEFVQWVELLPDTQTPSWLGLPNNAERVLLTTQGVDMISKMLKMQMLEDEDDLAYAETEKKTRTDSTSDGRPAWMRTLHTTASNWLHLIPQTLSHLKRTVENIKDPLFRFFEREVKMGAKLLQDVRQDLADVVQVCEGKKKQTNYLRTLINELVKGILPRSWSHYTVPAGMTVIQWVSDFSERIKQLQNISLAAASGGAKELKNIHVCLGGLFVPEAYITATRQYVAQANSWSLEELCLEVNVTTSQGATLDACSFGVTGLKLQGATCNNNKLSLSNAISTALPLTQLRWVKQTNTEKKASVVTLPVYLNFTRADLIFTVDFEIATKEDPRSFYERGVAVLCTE
molecule,measurement,setting,value
pig brain dynactin (from UniProt A0A287B8J2 1-1281) (complex),"percent reduction of Nde1 colocalization to dynein (150 nM dynactin, 25 nM Nde1)",[1],37%
same,"percent reduction of Nde1 colocalization to dynein (150 nM dynactin, 25 nM Nde1)",[2],75%
same,percent of dynein-colocalized Nde1 spots released,WT dynein-GFP (human),96%
"Nde1^1–190 (N-terminus of human Nde1) (domain or fragment, UniProt Q9NXR1 1-190, looked up, LD555 dye in the analytical SEC, Nde1, human, N-terminal coiled-coil, residues 1-190 (C-terminus truncated); also called Nde1^1–190-LD555; source: Sf9 (baculovirus, pOmniBac), purified (IgG Sepharose, TEV elution, Superdex 200 Increase SEC)) MEDSGKTFSSEEEEANYWKDLAMTYKQRAENTQEELREFQEGSREYEAELETQLQQIETRNRDLLSENNRLRMELETIKEKFEVQHSEGYRQISALEDDLAQTKAIKDQLQKYIRELEQANDDLERAKRATIMSLEDFEQRLNQAIERNAFLESELDEKENLLESVQRLKDEARDLRQELAVQQKQEKPR",stoichiometry N,[3],2
"Nde1^E118A/R129A (Lis1 binding mutant of Nde1), Q9NXR1 1-335 (natural protein, here or on the partner: a fluorescent dye in the colocalization assays; LD655, or Alexa488 and biotin, where labelled) MEDSGKTFSSEEEEANYWKDLAMTYKQRAENTQEELREFQEGSREYEAELETQLQQIETRNRDLLSENNRLRMELETIKEKFEVQHSEGYRQISALEDDLAQTKAIKDQLQKYIRELAQANDDLERAKAATIMSLEDFEQRLNQAIERNAFLESELDEKENLLESVQRLKDEARDLRQELAVQQKQEKPRTPMPSSVEAERTDTAVQATGSVPSTPIAHRGPSSSLNTPGSFRRGLDDSTGGTPLTPAARISALNIVGDLLRKVGALESKLASCRNLVYDQSPNRTGGPASGRSSKNRDGGERRPSSTSVPLGDKGLDTSCRWLSKSTTRSSSSC",decrease of the frequency of mtDDR runs with 250 nM Nde1 mutant in the absence of Lis1,[4],50%
"human Nde1 (natural protein, UniProt Q9NXR1 1-335, looked up, LD655 or LD555 dye where labelled, Nde1, human; Labelled through a SNAP or a ybbR tag; also called full-length Nde1; WT Nde1; source: Sf9 (baculovirus, pOmniBac), purified (IgG Sepharose, TEV elution, Superdex 200 Increase SEC)) MEDSGKTFSSEEEEANYWKDLAMTYKQRAENTQEELREFQEGSREYEAELETQLQQIETRNRDLLSENNRLRMELETIKEKFEVQHSEGYRQISALEDDLAQTKAIKDQLQKYIRELEQANDDLERAKRATIMSLEDFEQRLNQAIERNAFLESELDEKENLLESVQRLKDEARDLRQELAVQQKQEKPRTPMPSSVEAERTDTAVQATGSVPSTPIAHRGPSSSLNTPGSFRRGLDDSTGGTPLTPAARISALNIVGDLLRKVGALESKLASCRNLVYDQSPNRTGGPASGRSSKNRDGGERRPSSTSVPLGDKGLDTSCRWLSKSTTRSSSSC",decrease of the frequency of mtDDR runs with 250 nM Nde1 in the absence of Lis1,[5],50%
same,wtDDR run frequency on addition of 10 nM Nde1 with full-length Lis1,human Lis1,> 10 fold
same,wtDDR run frequency on addition of 10 nM Nde1 with 100 nM Lis1^39–410,Lis1^39–410,3.2 fold
same,stoichiometry N,[3],2
same,average bound time,[6],21 s
same,average bound time with Lis1 added,[6],42 s
"Nde1^E118K/R129E (Lis1 binding mutant of Nde1), Q9NXR1 1-335 (natural protein, here or on the partner: a fluorescent dye in the colocalization assays; LD655, or Alexa488 and biotin, where labelled) MEDSGKTFSSEEEEANYWKDLAMTYKQRAENTQEELREFQEGSREYEAELETQLQQIETRNRDLLSENNRLRMELETIKEKFEVQHSEGYRQISALEDDLAQTKAIKDQLQKYIRELKQANDDLERAKEATIMSLEDFEQRLNQAIERNAFLESELDEKENLLESVQRLKDEARDLRQELAVQQKQEKPRTPMPSSVEAERTDTAVQATGSVPSTPIAHRGPSSSLNTPGSFRRGLDDSTGGTPLTPAARISALNIVGDLLRKVGALESKLASCRNLVYDQSPNRTGGPASGRSSKNRDGGERRPSSTSVPLGDKGLDTSCRWLSKSTTRSSSSC",decrease of the frequency of mtDDR runs with 250 nM Nde1 mutant in the absence of Lis1,[4],50%
"Nde1^E118K/R129E (Lis1 binding mutant of Nde1) (natural protein, human, UniProt Q9NXR1 1-335, looked up, a fluorescent dye in the colocalization assays, Nde1, human, with E118K and R129E; Probably in full-length Nde1; source: Sf9 (baculovirus, pOmniBac), purified (IgG Sepharose, TEV elution, SEC)) MEDSGKTFSSEEEEANYWKDLAMTYKQRAENTQEELREFQEGSREYEAELETQLQQIETRNRDLLSENNRLRMELETIKEKFEVQHSEGYRQISALEDDLAQTKAIKDQLQKYIRELKQANDDLERAKEATIMSLEDFEQRLNQAIERNAFLESELDEKENLLESVQRLKDEARDLRQELAVQQKQEKPRTPMPSSVEAERTDTAVQATGSVPSTPIAHRGPSSSLNTPGSFRRGLDDSTGGTPLTPAARISALNIVGDLLRKVGALESKLASCRNLVYDQSPNRTGGPASGRSSKNRDGGERRPSSTSVPLGDKGLDTSCRWLSKSTTRSSSSC",stoichiometry N,[3],2
"Nde1^E118A/R129A (Lis1 binding mutant of Nde1) (natural protein, human, UniProt Q9NXR1 1-335, looked up, a fluorescent dye in the colocalization assays, Nde1, human, with E118A and R129A; Probably in full-length Nde1; source: Sf9 (baculovirus, pOmniBac), purified (IgG Sepharose, TEV elution, SEC)) MEDSGKTFSSEEEEANYWKDLAMTYKQRAENTQEELREFQEGSREYEAELETQLQQIETRNRDLLSENNRLRMELETIKEKFEVQHSEGYRQISALEDDLAQTKAIKDQLQKYIRELAQANDDLERAKAATIMSLEDFEQRLNQAIERNAFLESELDEKENLLESVQRLKDEARDLRQELAVQQKQEKPRTPMPSSVEAERTDTAVQATGSVPSTPIAHRGPSSSLNTPGSFRRGLDDSTGGTPLTPAARISALNIVGDLLRKVGALESKLASCRNLVYDQSPNRTGGPASGRSSKNRDGGERRPSSTSVPLGDKGLDTSCRWLSKSTTRSSSSC",stoichiometry N,[3],2
"Nde1^E47A (DIC binding mutant of Nde1) (natural protein, human, UniProt Q9NXR1 1-335, looked up, a fluorescent dye in the colocalization assays, Nde1, human, with E47A; Probably in full-length Nde1; source: Sf9 (baculovirus, pOmniBac), purified (IgG Sepharose, TEV elution, SEC)) MEDSGKTFSSEEEEANYWKDLAMTYKQRAENTQEELREFQEGSREYAAELETQLQQIETRNRDLLSENNRLRMELETIKEKFEVQHSEGYRQISALEDDLAQTKAIKDQLQKYIRELEQANDDLERAKRATIMSLEDFEQRLNQAIERNAFLESELDEKENLLESVQRLKDEARDLRQELAVQQKQEKPRTPMPSSVEAERTDTAVQATGSVPSTPIAHRGPSSSLNTPGSFRRGLDDSTGGTPLTPAARISALNIVGDLLRKVGALESKLASCRNLVYDQSPNRTGGPASGRSSKNRDGGERRPSSTSVPLGDKGLDTSCRWLSKSTTRSSSSC",stoichiometry N,[3],2
"Nde1^E47K (DIC binding mutant of Nde1) (natural protein, human, UniProt Q9NXR1 1-335, looked up, a fluorescent dye in the colocalization assays, Nde1, human, with E47K; Probably in full-length Nde1; source: Sf9 (baculovirus, pOmniBac), purified (IgG Sepharose, TEV elution, SEC)) MEDSGKTFSSEEEEANYWKDLAMTYKQRAENTQEELREFQEGSREYKAELETQLQQIETRNRDLLSENNRLRMELETIKEKFEVQHSEGYRQISALEDDLAQTKAIKDQLQKYIRELEQANDDLERAKRATIMSLEDFEQRLNQAIERNAFLESELDEKENLLESVQRLKDEARDLRQELAVQQKQEKPRTPMPSSVEAERTDTAVQATGSVPSTPIAHRGPSSSLNTPGSFRRGLDDSTGGTPLTPAARISALNIVGDLLRKVGALESKLASCRNLVYDQSPNRTGGPASGRSSKNRDGGERRPSSTSVPLGDKGLDTSCRWLSKSTTRSSSSC",stoichiometry N,[3],2
B1,percent of DDR complexes that co-migrate with Lis1,[7],70%
same,stoichiometry N,[3],2
same,average bound time,[6],12 s
same,average bound time with Nde1 added,[6],35 s
"mtLis1 (dynein-binding mutant of Lis1, R316A and W340A) (natural protein, human, UniProt P43034 1-410, looked up, LD555, or Alexa488 and biotin, on the SNAP tag in the colocalization assays, Lis1, human, with R316A and W340A on the beta-propeller domain; forms a dimer like Lis1; source: Sf9 (baculovirus, pOmniBac), purified (IgG Sepharose, TEV elution, SEC)) MVLSQRQRDELNRAIADYLRSNGYEEAYSVFKKEAELDVNEELDKKYAGLLEKKWTSVIRLQKKVMELESKLNEAKEEFTSGGPLGQKRDPKEWIPRPPEKYALSGHRSPVTRVIFHPVFSVMVSASEDATIKVWDYETGDFERTLKGHTDSVQDISFDHSGKLLASCSADMTIKLWDFQGFECIRTMHGHDHNVSSVAIMPNGDHIVSASRDKTIKMWEVQTGYCVKTFTGHREWVRMVRPNQDGTLIASCSNDQTVRVWVVATKECKAELREHEHVVECISWAPESSYSSISEATGSETKKSGKPGPFLLSGSADKTIKMWDVSTGMCLMTLVGHDNAVRGVLFHSGGKFILSCADDKTLRVWDYKNKRCMKTLNAHEHFVTSLDFHKTAPYVVTGSVDQTVKVWECR",stoichiometry N,[3],2
